Assay results published in paper PMC7894885, “Cyp33 binds AU-rich RNA motifs via an extended interface that competitively disrupts the gene repressive Cyp33-MLL1 interaction in vitro”.

What was measured:
MLL1 PHD3 (Homo sapiens) = MLL1 PHD3 (Homo sapiens) (UniProt Q03164); conditions: cited from earlier work
FL-Cyp33 [1] = biological target: T1, FL-Cyp33 (human, UniProt Q9UNP9 1-301); experiment: EMSA; EMSA: SELEX buffer (composition in S2 Table, not in material; physiological salt is 135 mM KCl, 15 mM NaCl) + 10% glycerol, 5 nM RNA, 0.5X TBE 8% PAGE at room temperature; NMR: SELEX buffer + 10% D2O, 25 C; pH not given; conditions: protein: recombinant, 6xHis-thrombin construct for NMR, hairpin (predicted)
T1 sequence (Q9UNP9 whole entry): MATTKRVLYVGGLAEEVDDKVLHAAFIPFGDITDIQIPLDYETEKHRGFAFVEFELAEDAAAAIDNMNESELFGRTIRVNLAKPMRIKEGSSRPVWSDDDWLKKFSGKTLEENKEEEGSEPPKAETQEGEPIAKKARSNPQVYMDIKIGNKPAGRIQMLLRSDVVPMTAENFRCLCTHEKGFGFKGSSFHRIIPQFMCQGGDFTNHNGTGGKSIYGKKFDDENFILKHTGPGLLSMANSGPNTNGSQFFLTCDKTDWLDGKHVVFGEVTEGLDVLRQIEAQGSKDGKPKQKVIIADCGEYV

Cyp33-Cyp = Cyp33-Cyp (human, UniProt Q9UNP9 131-301); experiment: NMR 1H-15N HSQC; no significant perturbation; EMSA: SELEX buffer (composition in S2 Table, not in material; physiological salt is 135 mM KCl, 15 mM NaCl) + 10% glycerol, 5 nM RNA, 0.5X TBE 8% PAGE at room temperature; NMR: SELEX buffer + 10% D2O, 25 C; pH not given; conditions: protein: recombinant; tags: C-terminal 6xHis, pET15b; label: 5'-32P (EMSA); hairpin (predicted)
Cyp33-Cyp, sequence (Q9UNP9 131-301): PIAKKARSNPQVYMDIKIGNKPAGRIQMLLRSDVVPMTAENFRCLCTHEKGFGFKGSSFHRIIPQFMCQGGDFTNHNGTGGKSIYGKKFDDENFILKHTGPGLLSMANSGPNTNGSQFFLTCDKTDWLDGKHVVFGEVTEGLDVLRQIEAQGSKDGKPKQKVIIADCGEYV

FL-Cyp33 [2] = biological target: T1, FL-Cyp33; experiment: EMSA; no quantifiable binding by gel shift; EMSA: SELEX buffer (composition in S2 Table, not in material; physiological salt is 135 mM KCl, 15 mM NaCl) + 10% glycerol, 5 nM RNA, 0.5X TBE 8% PAGE at room temperature; NMR: SELEX buffer + 10% D2O, 25 C; pH not given; conditions: protein: recombinant; 6xHis-thrombin construct for NMR; single strand

MLL1 PHD3 (Homo sapiens), sequence (Q03164 1566-1627): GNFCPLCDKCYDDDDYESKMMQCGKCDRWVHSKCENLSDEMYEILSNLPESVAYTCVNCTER

Cyp33 RRM (from UniProt Q9UNP9)
Kd (MLL1 PHD3 (Homo sapiens)): 1.9 µM

B1: SO-1 (structured_RNA)
RNA: UGGUAGACCAGUGAUAAUUAACCUGAUGCGUGGAGGAUAUCGAGUUGUCC
Kd (FL-Cyp33 [1]; label: 5'-32P (EMSA)): 6.6 ± 0.6 µM
binding result (Cyp33-Cyp): no binding

B2: SO-6 (structured_RNA)
RNA: AGGUGCCUCAAAUCCGCAUAAGAAUAACAACAUGGAGUGAAGCGCUCCCC
Kd (FL-Cyp33 [1]; label: 5'-32P): 36 ± 10 µM

B3: SO-3 (structured_RNA)
RNA: UGGUAGACCAGUGAUAAUUAACCUGAUG
Kd (FL-Cyp33 [1]; label: 5'-32P): 32 ± 2.5 µM

B4: SO-4 (structured_RNA)
RNA: UGGCCGGCCCAUCCCGACUGCCGGGUGAUAGACUCUUUAGCGAUUUAUGG
Kd (FL-Cyp33 [1]; label: 5'-32P): 55 ± 10 µM

B5: SO-8 (structured_RNA)
RNA: AGAACAAUAAUUACAAAGACUGAGCGUUUUAAAGUCUCCUCAUGUGCCCCC
Kd (FL-Cyp33 [1]; label: 5'-32P): 24 ± 13 µM

B6: SO-9 (structured_RNA)
RNA: AAAGUGAGAUAAGGUAACAACAAGAAUAAUAAUAUACCUAUCAUCUUGCC
Kd (FL-Cyp33 [1]; label: 5'-32P): ~90 µM

B7: SO-1 single-stranded region 12-mer (ssRNA)
RNA: AGUGAUAAUUAA
binding result (FL-Cyp33 [2]): no binding

B8: AAUAAUAA k-mer (ssRNA)
RNA: AAUAAUAA
binding result (FL-Cyp33 [2]): no binding

B9: SO-2 (structured_RNA)
RNA: CAGGUGUGUGACUACGAAAGAACAAUAAUAACACAAAAGAGUCCCGUGCC
Kd (FL-Cyp33 [1]; label: 5'-32P): 21 ± 3.1 µM
